Reference: US10266842B2 (priority 2013, dated 2019)

B1: LserFCP1-73: 73-residue polypeptide of SEQ ID No. 2; LserFCP1-77 lacking the last four residues, made recombinantly in E. coli (protein, listed as Lucilia sericata)
chain: QHGYGAGGHGQQGYGSQHSSHAPQGGHVVREQGFSGHVHEQQAGHHHEAGHHEQAGHHEQSGQQVHGQGHGYK
B2: LserFCP1-77: 77-residue polypeptide of SEQ ID No. 1 (Lucilia sericata), prepared by solid-phase synthesis or recombinantly in E. coli (protein, listed as Lucilia sericata)
chain: QHGYGAGGHGQQGYGSQHSSHAPQGGHVVREQGFSGHVHEQQAGHHHEAGHHEQAGHHEQSGQQVHGQGHGYKSHGY

Tested on: Fusarium graminearum (Strain IFA 65)
Assay type: cell-based

| Molecule | inhibition of spore germination (100 μM, compared to a water control (FIG. 9)) | IC50 (Fusarium graminearum spores, 24 h at room temperature, from dose-effect relationship (FIG. 8), read-out: concentration in which a half-maximum inhibition (of spore germination) occurred) [nM] |
| --- | --- | --- |
| B1 | complete inhibition |  |
| B2 |  | 1600 |
